Test results published in US20250242023A1 (published 2025).
Blank lines part the entries; values can stand above or below the binder they belong to.

Experiments:
[1] = molecular target: T1, mesothelin (MsIn), murine peptide on H-2Db (mouse); assay: cytokine release
T1 peptide: GQKMNAQAI

[2] = molecular target: T1, mesothelin (MsIn), murine peptide on …; assay: multimer staining
Description: Flow cytometry: Mononuclear cells were stained with MsIn₄₀₆₋₄₁₄:H-2D^b-APC or -BV421 tetramer (1:100) in the presence of 1:100 Fc block (αCD16/32, Tonbo), and monoclonal antibodies diluted 1:100 in FACs Buffer (2% BSA+PBS) or (2.5% FBS+PBS+1% NaN₃) and specific to CD45 (30F-11, Biolegend), CD8a (53-6.7, Tonbo), CD44 (IM7, BD Biosciences), CD62L (MEL-14, Biolegend), CD69 (H1.2F3, BD Biosciences), CD25 (PC61, BD Biosciences), Vβ9 (MR10-2, Biolegend), CD3e (145-2C11, BD Biosciences), CD4 (GK1.5, BD Biosciences), and/or TCRβ (h57-597, eBiosciences) in the presence of live/dead stain (Tonbo Ghost dye in BV510 or APC ef780). Cells were fixed using Foxp3 transcription factor reagent (Tonbo), for 30 minutes at 4° C., washed and intracellular stained with aKi67 (B56, BD Biosciences) and/or Foxp3 (3G3, Tonbo) diluted 1:100 in Fix/Perm buffer (Tonbo) and stained overnight. The next day, cells were washed 2× with perm wash buffer and resuspended in FACs buffer or 0.4% PFA for 15 minutes at 4° C. Cells were resuspended in FACs buffer and Countbright Absolute Counting Beads (Thermo Fisher). Cells were acquired with a Fortessa 1770 flow cytometer and Facs Diva software (BD Biosciences). Data were analyzed using FlowJo software (version 10). ViSNE analysis was performed by gating on total live T cells with default settings of 1000 iterations, 30 perplexity and theta of 0.5 using Cytobank software.

- binding result [1]: recognises
B1: 7431 TCR (TCR, V domains shown)
Valpha: GDSVTQTEGPVTVSESESLIINCTYSATSIAYPNLFWYVRYPGEGLQLLLKVITAGQKGSSRGFEATYNKETTSFHLQKASVQESDSAVYYCALGPDTNAYKVIFGKGTHLHVLP
Vbeta: DTTVKQNPRYKLARVGKPVNLICSQTMNHDTMYWYQKKPNQAPKLLLFYYDKILNREADTFEKFQSSRPNNSFCSLYIGSAGLEYSAMYLCASSRGANTEVFFGKGTRLTVV

- binding result [2]: recognises
B2: 1045 TCR (TCR, V domains shown)
Valpha: GDSVTQTEGPVTVSESESLIINCTYSATSIAYPNLFWYVRYPGEGLQLLLKVITAGQKGSSRGFEATYNKETTSFHLQKASVQESDSAVYYCALGLDYANKMIFGLGTILRVRP
Vbeta: DTTVKQNPRYKLARVGKPVNLICSQTMNHDTMYWYQKKPNQAPKLLLFYYDKILNREADTFEKFQSSRPNNSFCSLYIGSAGLEYSAMYLCASSNPQDTQYFGPGTRLLVL
